Laboratory results taken from PMC314469, “Protein Interaction Networks by Proteome Peptide Scanning” (PLoS Biology, 2004).

T1: Abp1 SH3 (ABP1_YEAST), P15891
T1 chain: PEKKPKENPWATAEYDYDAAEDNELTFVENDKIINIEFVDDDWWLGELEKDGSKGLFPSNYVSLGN


Biological target: T1, Abp1 SH3 (ABP1_YEAST), P15891
Test: SPOT array

| Binder | normalised SPOT signal, Boehringer light units (BLU); mean over the file's lines of this peptide |
| --- | --- |
| RRSSYGYNEVPPKP [YHL024W 604-617] | 188 |
| SDTNDIKTPHPERP [YER169W 626-639] | 114 |
| RSNKWRSIGTPSRP [YCR033W 218-231] | 148 |
| RYASSLPPNALKP [YGL191W 8-20] | 219 |
| RSEKIMPFLSPPRP [YGL064C 428-441] | 701 |
| SSSALLRRTIPKRP [YDL142C 9-22] | 253 |
| RSLSLMDPALQKP [YDR186C 539-551] | 431 |
| SGKMRSRSSSPVRP [YKL185W 433-446] | 560 |
| SSFTSQDSQKPLKP [YDL240W 56-69] | 113 |
| SEKPEETPNPLKP [YKL077W 65-77] | 85.4 |
| SEQDATDPASAKP [YIL115C 491-503] | 49.3 |
| RQIMIKSPNDFKP [YBL034C 808-820] | 2000 |
| RTKAIHSHGAPFRP [YBL080C 12-25] | 49.4 |
| RRKKQKKKPTPTRP [YKL089W 336-349] | 33.3 |
| SDSEENEPRRKKP [YMR014W 341-353] | 93.2 |
| RSMTDILPLSSKP [YCR066W 152-164] | 5410 |
| RQPTIATTDKPDRP [YDR246W 151-164] | 83.4 |
| SDTKTVVPVTNKP [YML035C 237-249] | 28.6 |
| SDINQLQGVYPSRP [YBR026C 64-77] | 98.7 |

| Binder | normalised SPOT signal, Boehringer light units (BLU); mean over the file's lines of this peptide |
| --- | --- |
| SETKSVPSIEPFKP [YER032W 653-666] | 62.5 |
| SGNKEAIPALIKP [YKL157W 770-782] | 82.8 |
| RVRKTHVPASKRP [YGL061C 212-224] | 78.6 |
| SANAKLHRTKPVKP [YLR430W 1001-1014] | 138 |
| SFTIPFLPKIPQKP [YLR164W 23-36] | 22800 |
| SEWNWPQPVILKP [YKR002W 264-276] | 54.4 |
| RSSTPSHPRMPKP [YBR245C 789-801] | 1930 |
| RWINKIGPLFDKP [YDR176W 652-664] | 287 |
| SISEQYYPEEPTKP [YGR019W 2-15] | 60.4 |
| RSRLQEKELPPIKP [YBL007C 612-625] | 88.5 |
| RRQHEQWPAYEKP [YHR185C 60-72] | 300 |
| RVSITKQPKALKP [YIL074C 41-53] | 244 |
| RRFSKRHNSNPRKP [YFR032C 54-67] | 89 |
| SGDAALVKFVPSKP [YBR118W 394-407] | 52.8 |
| SSSLPLPKLRPPRP [YKL097C 59-72] | 5200 |
| SAKKAPIDYSPSRP [YDL025C 107-120] | 0 |
| RRKIERDPNAPKKP [YDR174W 96-109] | 66.1 |
| SASSNASDSGPQRP [YDL106C 66-79] | 172 |
| RRRDFGAPANKRP [YGR074W 130-142] | 71.9 |

More lines, now with the values ahead:

| normalised SPOT signal, Boehringer light units (BLU); mean over the file's lines of this peptide | Binder |
| --- | --- |
| 276 | RYTYLPSPSYFRP [YPL066W 175-187] |
| 63.3 | SAKEEENPVEVKP [YPR112C 621-633] |
| 88.9 | SATPRRASSRPTRP [YNR049C 146-159] |
| 30.6 | SGLDGILEDEPSRP [YPR117W 1516-1529] |
| 121 | RRSADIGTDKPVKP [YPL181W 404-417] |
| 45.7 | SDDYEELATIPYRP [YOR168W 585-598] |
| 124 | SDISAMQPVNPKP [YPR182W 5-17] |
| 52.2 | SAPQLTVPEPSKP [YNL034W 543-555] |
| 100 | SASSTPIPVLGKP [YOR098C 775-787] |
| 164 | SHKQKRTLANPDKP [YPR079W 40-53] |
| 46 | SSSIKLQDQDPSKP [YOR205C 26-39] |
| 56.7 | RQPIVQTPHVPDRP [YPR104C 727-740] |
| 92.3 | SIKEEKKPFDKKP [YMR284W 586-598] |
| 527 | RSSITNPVFNPRKP [YMR068W 271-284] |
| 105 | SAIPLGTPEKGKP [YMR086W 669-681] |
| 615 | RRMQKFLPPEGKP [YPR140W 364-376] |
| 1200 | RVEMQSKKEDPNRP [YMR241W 239-252] |
| 76.3 | RSRHEVPKRSPEKP [YNL278W 803-816] |
| 9.2 | SHEHEEPTYHPPKP [YMR231W 646-659] |
| 92.9 | SFVDKRNPVDNKP [YOL008W 79-91] |
